Data as given in US9549967B2, “Regulation of sodium channels by PLUNC proteins” (The University of North Carolina at Chapel Hill, priority 2009, dated 2017).

Molecular target: T1, α, β and γ ENaC subunits (Rattus norvegicus, UniProt P37089+P37090+P37091)
T1 construct: expressed in transfected cells; host or cells: Xenopus oocytes (cRNA injection), lysates
T1 sequence (P37089 1-698): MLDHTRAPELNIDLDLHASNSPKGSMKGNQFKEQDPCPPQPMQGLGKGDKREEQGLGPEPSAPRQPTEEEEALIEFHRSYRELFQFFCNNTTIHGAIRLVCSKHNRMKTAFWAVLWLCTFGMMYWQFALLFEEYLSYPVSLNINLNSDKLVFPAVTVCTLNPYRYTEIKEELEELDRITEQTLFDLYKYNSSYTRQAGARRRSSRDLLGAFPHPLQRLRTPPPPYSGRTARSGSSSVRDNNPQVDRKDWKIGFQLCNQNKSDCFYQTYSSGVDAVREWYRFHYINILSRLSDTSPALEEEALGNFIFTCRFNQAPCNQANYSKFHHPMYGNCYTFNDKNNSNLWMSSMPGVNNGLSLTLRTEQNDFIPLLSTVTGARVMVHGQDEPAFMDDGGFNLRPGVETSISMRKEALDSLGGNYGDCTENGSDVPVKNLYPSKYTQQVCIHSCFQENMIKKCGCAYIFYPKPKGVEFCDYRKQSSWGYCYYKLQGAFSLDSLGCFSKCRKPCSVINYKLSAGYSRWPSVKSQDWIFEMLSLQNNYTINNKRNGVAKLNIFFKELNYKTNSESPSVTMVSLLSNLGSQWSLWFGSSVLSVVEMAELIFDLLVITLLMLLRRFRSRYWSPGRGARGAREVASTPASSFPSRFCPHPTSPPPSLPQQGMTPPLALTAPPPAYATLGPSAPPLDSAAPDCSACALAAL
T1 sequence (P37090 1-638): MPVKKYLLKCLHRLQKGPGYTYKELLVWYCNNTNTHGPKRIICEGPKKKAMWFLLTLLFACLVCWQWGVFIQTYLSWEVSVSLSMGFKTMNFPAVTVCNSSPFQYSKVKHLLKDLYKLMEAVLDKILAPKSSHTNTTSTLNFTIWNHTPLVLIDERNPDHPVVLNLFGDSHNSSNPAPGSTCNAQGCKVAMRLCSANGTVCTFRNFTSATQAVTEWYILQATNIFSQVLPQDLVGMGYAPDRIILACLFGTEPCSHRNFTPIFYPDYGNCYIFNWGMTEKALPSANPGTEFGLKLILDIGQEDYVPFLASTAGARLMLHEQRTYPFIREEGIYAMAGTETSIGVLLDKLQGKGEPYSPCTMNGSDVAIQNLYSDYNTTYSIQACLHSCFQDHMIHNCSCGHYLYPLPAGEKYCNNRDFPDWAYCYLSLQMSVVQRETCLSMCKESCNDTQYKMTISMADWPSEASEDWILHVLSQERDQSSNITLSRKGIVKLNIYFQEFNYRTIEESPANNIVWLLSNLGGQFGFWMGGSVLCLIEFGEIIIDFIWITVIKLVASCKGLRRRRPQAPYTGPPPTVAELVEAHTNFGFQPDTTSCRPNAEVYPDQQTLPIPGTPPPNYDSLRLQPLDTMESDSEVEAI
T1 sequence (P37091 1-650): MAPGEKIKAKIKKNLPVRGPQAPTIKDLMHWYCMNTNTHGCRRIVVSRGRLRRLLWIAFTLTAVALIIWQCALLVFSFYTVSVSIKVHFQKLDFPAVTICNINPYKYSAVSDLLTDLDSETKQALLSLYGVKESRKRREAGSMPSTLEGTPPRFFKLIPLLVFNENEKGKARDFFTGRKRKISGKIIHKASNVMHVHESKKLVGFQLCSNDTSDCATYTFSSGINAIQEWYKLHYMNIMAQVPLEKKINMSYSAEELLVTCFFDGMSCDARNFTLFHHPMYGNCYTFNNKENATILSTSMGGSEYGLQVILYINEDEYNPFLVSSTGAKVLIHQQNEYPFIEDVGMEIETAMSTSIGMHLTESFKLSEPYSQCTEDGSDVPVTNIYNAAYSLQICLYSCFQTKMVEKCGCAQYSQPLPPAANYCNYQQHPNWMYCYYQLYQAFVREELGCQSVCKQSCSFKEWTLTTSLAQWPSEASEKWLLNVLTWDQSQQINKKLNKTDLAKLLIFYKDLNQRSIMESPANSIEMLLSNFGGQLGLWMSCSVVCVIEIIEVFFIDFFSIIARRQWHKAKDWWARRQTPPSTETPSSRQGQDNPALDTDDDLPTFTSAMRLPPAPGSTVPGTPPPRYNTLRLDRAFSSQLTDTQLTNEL
Assay: Co-immunoprecipitation of V5-tagged SPLUNC1 with HA-tagged ENaC subunits from Xenopus oocytes
Assay type: binding
Details: anti-HA immunoprecipitation, probed for V5-tagged SPLUNC1
Description: Co-Immunoprecipitation: Xenopus oocytes were injected with either HA-N-Terminus or V5-C-Terminus (HA-NT/V5-CT) tagged subunits in combination with wild type (WT) untagged rat αβγENaC subunits (0.3 ng cRNA each) with or without V5-tagged SPLUNC1 and CAP2 (1 ng cRNA each). After 24 h, 40 eggs per experimental condition were lysed with buffer containing (in mM): 20 Tris, 50 NaCl, 50 NaF, 10 β-glycerophosphate, 5 Na4P2O7 pyrophosphate, 1 EDTA, pH 7.5 and protease inhibitors (complete, Roche), aprotinin (Sigma). Cell lysates were prepared by passing the eggs through a 27 G1/2 needle twice and by centrifugation at 3,600 rpm for 10 minutes at 4° C. Supernatants were transferred to new tubes and samples were spun at 14,000 rpm for 20 minutes at 4° C. Supernatants were discarded and pellets were solubilized in (mM) 50 Tris, 100 NaCl, 0.1% Triton X-100, 0.1% NP-40, 20 NaF, 10 Na4P2O7, 10 EDTA+protease inhibitor cocktail (Sigma), pH 7.5. Total inputs were taken from whole cell samples representing 4% of total protein. Solubilized proteins were incubated with 50 μl of protein A and 5 μl of anti-HA antibody (Covance) overnight while tumbling at 4° C. Samples were washed three times with (mM) 150 NaCl 50 Tris pH 7.5 buffer. Laemmli buffer was added and samples were loaded on a 15% gradient Tris-glycine gel after incubation for 10 minutes at 96° C. […]

B1: SPLUNC1: human SPLUNC1, 256 amino acid secreted PLUNC protein (SEQ ID NO:1); rSPLUNC1 = V5/6His-tagged protein purified from HEK293 media (protein, listed as Homo sapiens)
chain: MFQTGGLIVFYGLLAQTMAQFGGLPVPLDQTLPLNVNPALPLSPTGLAGSLTNALSNGLLSGGLLGILENLPLLDILKPGGGTSGGLLGGLLGKVTSVIPGLNNIIDIKVTDPQLLELGLVQSPDGHRLYVTIPLGIKLQVNTPLVGASLLRLAVKLDITAEILAVRDKQERIHLVLGDCTHSPGSLQISLLDGLGPLPIQGLLDSLTGILNKVLPELVQGNVCPLVNEVLRGLDITLVHDIVNMLIHGLQFVIKV
modifications: V5/6His tag
notes: rSPLUNC1 = V5/6His-tagged protein purified from HEK293 media
  binding to ENaC subunits (co-immunoprecipitation): bound to all three ENaC subunits
